Measurements reported in patent publication US6271440, “Plant regulatory proteins III” (The Australian National University).

Columns and labels:
[1] = target: T1, GAMYB (OsGAMYB) (Oryza sativa) (UniProt Q0JIC2); assay: cell_activity; details: GUS increase without GA versus empty Ubi1.cass effector
T1 sequence: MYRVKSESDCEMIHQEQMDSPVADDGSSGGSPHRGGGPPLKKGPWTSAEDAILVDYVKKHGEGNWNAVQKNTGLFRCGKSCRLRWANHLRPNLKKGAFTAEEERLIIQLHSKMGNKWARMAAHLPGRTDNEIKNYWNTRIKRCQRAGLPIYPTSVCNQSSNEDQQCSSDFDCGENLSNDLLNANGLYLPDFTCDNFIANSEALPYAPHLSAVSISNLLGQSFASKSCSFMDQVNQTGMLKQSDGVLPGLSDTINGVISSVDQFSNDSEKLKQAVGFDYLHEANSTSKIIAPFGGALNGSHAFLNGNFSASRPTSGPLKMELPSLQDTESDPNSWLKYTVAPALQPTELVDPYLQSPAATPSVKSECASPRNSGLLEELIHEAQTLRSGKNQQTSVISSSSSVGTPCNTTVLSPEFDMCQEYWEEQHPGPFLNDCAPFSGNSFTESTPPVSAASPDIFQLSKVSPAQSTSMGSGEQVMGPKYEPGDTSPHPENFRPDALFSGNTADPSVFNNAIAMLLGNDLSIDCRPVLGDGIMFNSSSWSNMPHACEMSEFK

[2] = target: T2, GAMYB (HvGAMYB), GST fusion (Hordeum vulgare); assay: EMSA; TAACAGAc; mutation had no effect on binding; details: tags: N-terminal GST (pGEX), E. coli XL1-blue; label: 32P; 5' overhangs
T2 chain: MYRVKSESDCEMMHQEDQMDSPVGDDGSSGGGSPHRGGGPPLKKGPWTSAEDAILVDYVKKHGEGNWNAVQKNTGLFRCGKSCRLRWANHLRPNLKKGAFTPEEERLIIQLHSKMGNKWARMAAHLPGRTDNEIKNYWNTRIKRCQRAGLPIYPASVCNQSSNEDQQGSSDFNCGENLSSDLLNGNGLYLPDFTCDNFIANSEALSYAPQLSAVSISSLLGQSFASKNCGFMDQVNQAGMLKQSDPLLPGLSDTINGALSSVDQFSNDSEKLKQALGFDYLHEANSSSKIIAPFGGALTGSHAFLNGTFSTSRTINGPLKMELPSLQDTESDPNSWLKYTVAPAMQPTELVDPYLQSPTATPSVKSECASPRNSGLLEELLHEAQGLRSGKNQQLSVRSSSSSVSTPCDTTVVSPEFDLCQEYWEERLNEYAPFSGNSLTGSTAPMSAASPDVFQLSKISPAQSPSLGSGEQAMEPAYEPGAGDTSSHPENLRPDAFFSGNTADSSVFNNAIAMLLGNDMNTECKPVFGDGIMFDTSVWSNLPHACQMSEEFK
Procedure: (§1) After annealing the complementary oligonucleotides were 3' end-labelled using ^32P-dCTp and the Klenow fragment, and purified by electrophoresis on polyacrylamide gels. Bacterially-produced GAMYB fusion protein-oligonucleotide binding reactions were performed in 10 µl binding buffer (24 mM Hepes-KOH pH 7.9, 50 mM KCl, 0.5 mM EDTA, 0.5 mM dithiothreitol, 10% (v/v) glycerol) with 2 µg of poly(dI-dC)-poly(dI-dC), 150 ng of GAMYB fusion protein and 0.9 ng of a $^32$P-labelled oligonucleotide probe (40,000 cpm). After incubation at 20° C. for 10 min, the samples were run on a 6% (w/v) polyacrylamide gel containing 5% (v/v) glycerol, in 0.25 x Tris-borate-EDTA buffer at 140 volts. After electrophoresis, the gels were dried and autoradiographed.
(§2) To test whether GAMYB binds to the TAACAAA box in the high-pI α-amylase promoter, we performed gel-retardation experiments as described in Example 8. We looked for binding between an oligonucleotide probe (w) containing the amylase promoter sequence (−149 to −128), including the wild-type TAACAAA box and an affinity-purified glutathione-s-transferase (GST)-GAMYB fusion protein that had been expressed in Escherichia coil according to Example 7. […] Experiments were also performed using mutant oligonucleotide probes (m-1 to m-5).

[3] = target: T2, GAMYB (HvGAMYB), GST fusion; assay: EMSA; single mutation at 3' end of site; details: tags: N-terminal GST (pGEX), E. coli XL1-blue; label: 32P; 5' overhangs
Procedure: as §1, §2

[4] = target: T2, GAMYB (HvGAMYB), GST fusion; assay: EMSA; single mutation TGACAAAc; details: tags: N-terminal GST (pGEX), E. coli XL1-blue; label: 32P; 5' overhangs
Procedure: as §1, §2

[5] = target: T2, GAMYB (HvGAMYB), GST fusion; assay: EMSA; 24 mM Hepes-KOH pH 7.9, 50 mM KCl, poly(dI-dC), 20 C; 100-fold cold w abolishes complex; details: tags: N-terminal GST (pGEX), E. coli XL1-blue; label: 32P; 5' overhangs
Procedure: as §1, §2

[6] = target: Glutathione-S-transferase (GST control) (UniProt P08515 P08515:1-218); assay: EMSA; GST alone control; details: tags: pGEX vector; label: 32P; 5' overhangs
Glutathione-S-transferase (GST control), sequence (P08515 whole entry, one chain of several): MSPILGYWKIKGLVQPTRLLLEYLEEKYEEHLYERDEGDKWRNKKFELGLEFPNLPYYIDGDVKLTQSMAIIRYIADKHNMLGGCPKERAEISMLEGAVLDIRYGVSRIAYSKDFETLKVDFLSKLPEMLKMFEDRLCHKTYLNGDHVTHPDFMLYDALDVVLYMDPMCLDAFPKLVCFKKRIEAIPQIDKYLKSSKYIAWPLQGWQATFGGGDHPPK
Procedure: as §1, §2

[7] = target: T2, GAMYB (HvGAMYB), GST fusion; assay: EMSA; multi-bp mutation abolishes binding; details: tags: N-terminal GST (pGEX), E. coli XL1-blue; label: 32P; 5' overhangs
Procedure: as §1, §2

With “Amy32b low-pI alpha-amylase promoter (mlo22)” as the molecule, how does the activity [1] read?
The activity was 176 fold.

B1: m-3 (dsDNA)
DNA 1: GGCCGATAACAGACTCCGG
DNA 2: CCGGAGTCTGTTATCGGCC
Does B1 bind [2]?
Result: binds

B2: m-5 (dsDNA)
DNA 1: GGCCGATAACAAAATCCGG
DNA 2: CCGGATTTTGTTATCGGCC
Does B2 bind [3]?
Result: no binding

B3: m-2 (dsDNA)
DNA 1: GGCCGATGACAAACTCCGG
DNA 2: CCGGAGTTTGTCATCGGCC
Does B3 bind [4]?
Result: no binding

B4: m-4 (dsDNA)
DNA 1: GGCCGATAACAAGCTCCGG
DNA 2: CCGGAGCTTGTTATCGGCC
Does B4 bind [3]?
Result: no binding

B5: w (dsDNA)
DNA 1: GGCCGATAACAAACTCCGG
DNA 2: CCGGAGTTTGTTATCGGCC
Does B5 bind [5]?
Result: binds

Does B5 bind [6]?
Result: no binding

B6: m-1 (dsDNA)
DNA 1: GGCCGACTCGAGACTCCGG
DNA 2: CCGGAGTCTCGAGTCGGCC
Does B6 bind [7]?
Result: no binding
